# According to paper PMC5493658, “Post-secretional activation of Protease IV by quorum sensing in Pseudomonas aeruginosa” (Scientific Reports, 2017):
# T1: P-PIV: His-tagged protease IV (PIV) purified from PAO-T7 (Pseudomonas aeruginosa, UniProt Q9HWK6 212-462)
# T1 construct: Protease IV (PIV), lysyl-endopeptidase encoded by piv, Pseudomonas aeruginosa; 26 kDa mature PIV left after removal of the signal peptide and the propeptide (residues 1-211 of the 48 kDa prepro-PIV); because the N-terminus is processed twice during secretion it is probably C-terminal (surmise); also called His-tagged active PIV; mature PIV; source: P. aeruginosa PAO-T7 harboring pQF21c-PIV, …
# T1 sequence: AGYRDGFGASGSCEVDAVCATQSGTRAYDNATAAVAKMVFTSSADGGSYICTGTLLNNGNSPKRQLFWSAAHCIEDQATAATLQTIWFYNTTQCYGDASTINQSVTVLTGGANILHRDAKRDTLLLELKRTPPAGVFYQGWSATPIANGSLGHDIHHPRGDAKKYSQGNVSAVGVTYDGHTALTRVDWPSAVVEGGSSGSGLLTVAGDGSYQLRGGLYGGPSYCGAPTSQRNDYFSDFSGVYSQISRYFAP
# B1: propeptide of PIV purified from E. coli (domain or fragment)
# chain: APGASEMAGDVAVLQASPASTGHARFANPNAAISAAGIHFAAPPARRVARAAPLAPKPGTPLQVGVGLKTATPEIDLTTLEWIDTPDGRHTARFPISAAGAASLRAAIRLETHSGSLPDDVLLHFAGAGKEIFEASGKDLSVNRPYWSPVIEGDTLTVELVLPANLQPGDLRLSVPQVSYFADSLYK
# notes: Propeptide of protease IV (PIV), Pseudomonas aeruginosa; expressed as residues 1-211 of prepro-PIV (signal peptide and propeptide); also called purified propeptide; PP; source: E. coli BL21 (DE3) harboring pET16b-pro, purified (Ni-NTA, Q sepharose, size exclusion chromatography); not shown: His tag, N-terminal, cleaved
# Target: T1, P-PIV: His-tagged protease IV (PIV) …
# Assay: pull-down; 1 ug purified propeptide mixed with 1 ug His-tagged P-PIV in 25 ul, room temperature 10 min; loaded on Ni-NTA agarose column, washed twice with 5 mM imidazole, eluted with 200 mM imidazole; SDS-PAGE
# Conditions: both partners purified
binder,measurement,value
B1,binding result,binds
